Consider one molecule from article PMC11063955, “A multiplexed time-resolved fluorescence resonance energy transfer ultrahigh-throughput screening assay for targeting the SMAD4–SMAD3–DNA complex” (Journal of Molecular Cell Biology, 2023).

What all share (settings): remark: other sources report otherwise
Assay [1] has as its target T1, His-tagged SMAD4 WT (Mothers against decapentaplegic homolog 4), Q13485.
T1 chain: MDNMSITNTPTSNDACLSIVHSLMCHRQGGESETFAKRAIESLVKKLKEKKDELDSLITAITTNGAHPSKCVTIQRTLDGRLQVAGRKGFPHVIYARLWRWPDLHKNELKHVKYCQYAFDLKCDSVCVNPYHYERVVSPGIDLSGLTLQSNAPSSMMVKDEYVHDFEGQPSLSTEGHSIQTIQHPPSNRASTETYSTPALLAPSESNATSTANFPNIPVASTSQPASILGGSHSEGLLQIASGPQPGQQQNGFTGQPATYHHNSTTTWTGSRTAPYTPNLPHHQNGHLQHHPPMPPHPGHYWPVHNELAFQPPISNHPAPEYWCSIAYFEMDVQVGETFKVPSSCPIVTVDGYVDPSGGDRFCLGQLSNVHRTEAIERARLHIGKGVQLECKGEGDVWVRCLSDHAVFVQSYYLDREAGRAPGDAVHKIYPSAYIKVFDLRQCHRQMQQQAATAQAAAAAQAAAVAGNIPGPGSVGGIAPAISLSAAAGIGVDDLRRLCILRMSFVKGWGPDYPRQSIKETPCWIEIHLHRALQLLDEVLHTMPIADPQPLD
Put plainly: AlphaScreen or HTRF; multiplexed TR-FRET, PPI read-out (Tb-D2), lysate of HEK293T cells co-expressing His-SMAD4 and Flag-SMAD3 with point-mutated 5'-FAM-SBE4 Mut dsDNA in place of the WT dsDNA.

For assay [2], the target named is T2, His-tagged SMAD4 R361C, Q13485.
T2 chain: T1 chain with R361C
The experiment in a line: AlphaScreen or HTRF; multiplexed TR-FRET, PPI read-out (Tb-D2), lysate of HEK293T cells co-expressing His-SMAD4 and Flag-SMAD3 (WT or mutated) with 5'-FAM-SBE4 WT dsDNA; anti-FLAG M2-Tb cryptate and anti-6xHis-D2 antibodies; FRET buffer 20 mM Tris-HCl pH 7.0, 50 mM NaCl, 0.01% NP-40; 4°C for 30 min.

Assay [3] deals with T3, His-tagged SMAD4 R361H, Q13485.
T3 chain: T1 chain with R361H
The assay is described as above.

Substitutions are numbered along the chain they refer to.

B1: Flag-tagged SMAD3 WT, P84022 1-425 (natural protein)
chain: MSSILPFTPPIVKRLLGWKKGEQNGQEEKWCEKAVKSLVKKLKKTGQLDELEKAITTQNVNTKCITIPRSLDGRLQVSHRKGLPHVIYCRLWRWPDLHSHHELRAMELCEFAFNMKKDEVCVNPYHYQRVETPVLPPVLVPRHTEIPAEFPPLDDYSHSIPENTNFPAGIEPQSNIPETPPPGYLSEDGETSDHQMNHSMDAGSPNLSPNPMSPAHNNLDLQPVTYCEPAFWCSISYYELNQRVGETFHASQPSMTVDGFTDPSNSERFCLGLLSNVNRNAAVELTRRHIGRGVRLYYIGGEVFAECLSDSAIFVQSPNCNQRYGWHPATVCKIPPGCNLKIFNNQEFAALLAQSVNQGFEAVYQLTRMCTIRMSFVKGWGAEYRRQTVTSTPCWIELHLNGPLQWLDKVLTQMGSPSIRCSSVS
Take B1: the decrease of the PPI signal with 5'-FAM-SBE4 Mut dsDNA against WT dsDNA in assay [1] worked out at 15%. For the same molecule, the reduction of the PPI signal against SMAD4 WT in assay [2] and in assay [3] was 75% in each case.
